Key:
[1] = target: T1, SARS-CoV-2 spike RBD (WT) (Severe acute respiratory syndrome …, UniProt P0DTC2); test: BLI
[2] = target: T1, SARS-CoV-2 spike RBD (WT); test: ELISA; design: unit not given here

Row | Binder | Kd [1] | binding score [2]
1 | C2726 (antibody, V domains shown) VH: EVQLVQSGAEVKKPGESLKISCKGSGYSFTSYWIGWVRQMPGKGLEWMGIIYPGDSDTRYSPSFQGQVTISADKSISTAYLQWSSLKASDTAMYYCARRTAARTNGVCLDYWGQGTLVTVSS VL: not shown | 133 nM | 3440
2 | D001 (antibody, V domains shown) VH: QVQLVESGGGVVQPGRSLRLSCAASGFTFSSYGMHWVRQAPGKGLEWVAVISYDGSNKYYVDSVKGRFTISRDNSKNTLYLQMNSLRAEDTAVYYCAKEGGSYYGGGGYFDYWGQGTLVTVSS VL: DIQMTQSPSSLSASVGDRVTITCQASQDISNYLHWYQQKPGKAPKLLIYDASNLETGVPSRFSGSGSGTDFTLTISSLQPEDIATYYCQQYDNLPYTFGQGTKLEIK | 16.6 nM | 77.6
3 | D040 (antibody, V domains shown) VH: QVQLVESGGGVVQPGRSLRLSCAASGFTFSSYGMHWVRQAPGKGLEWVTAISYDGSNKYYADSVRGRFTISRDNSKRTLYLQMNSLRAEDTAVYYCAKGVGPYCSGGSCYSPYFDYWGQGTLVTVSS VL: DIQMTQSPSSLSASIGDRVTITCQANQDISNYLNWYQQKPRKAPKLLIYDASDLETGVPSRFSGSGSGTDFTFTISSLQPEDIATYYCQQSDNLPLTFGGGTKVEIK | 32 nM | 7.71
4 | C2706 (antibody, V domains shown) VH: EVQLVESGGGVVQPGGSLRLSCAASGFTFSSYGMHWVRQAPGKGLEWVAFIRYDGSNKYYADSVKGRFTISRDNSKNTLYLQMNSLRAEDTAVYYCAKVGGRYSGYEGYFDYWGQGTLVTVSS VL: not shown | – | > 10000
5 | C2744 (antibody, V domains shown) VH: EVQLLESGGGLVQTGGSLRLSCAASGFTFSSYAMSWVRQAPGKGLEWVSAISGTGGSTYYADSVKGRFTISRDHSKNTLYLQMNSLRAEDTAVYYCAKPINMIDPHDAFDIWGQGTMVTVSS VL: not shown | 248 nM | 5390
6 | D102 (antibody, V domains shown) VH: QVQLVESGGGVVQPGGSLRLSCAASGFTFSSYGMHWVRQAPGKGLEWVAFIRYDGSNKYYADSVKGRFTISRDNSKNTLYLQMNSLRAEDTAVYYCAKTLGYYYDSSGYYLDYWGQGTLVTVSS VL: not shown | 49.1 nM | 22.3
7 | D081 (antibody, V domains shown) VH: QVQLQESGPGLVKPSQTLSLTCTVSGGSISSGDYYWSWIRQPPGKGLEWIGYIYYSGSTYYNPSLKSRVTISVDTSKNQFSLKLSSVTAADTAVYYCARVAGIVNWFDPWGQGTLVTVSS VL: NFMLTQPHSVSESPGKTVTISCTGSSGSIASNYVQWYQQRPGSAPTTVIYEDNQRPSGVPDRFSGSIDSSSNSASLTISGLKTEDEADYYCQSYDSSNQVFGGGTKLTVL | – | > 10000
8 | D165 (antibody, V domains shown) VH: QVQLVQSGAEVKKPGASVKVSCKASGYTFSNYVINWVRQAPGQRPEWMGWINADNGHTVYSQKLQGRVTITTDTSASEAYMELSGLRSEDTAVYYCARGREDYYNNEPYGMDVWGQGTTVTVSS VL: DIQMTQSPSSLSASVGDRVTITCRASQTISNYLNWYQQKPGQAPKLLIFAASSLQTGVPSRFSGSGSGTTFTLTISSLQPEDFATYYCQQSYGSLYTFGQGTKLDIK | 117 nM | 1370
9 | D104 (antibody, V domains shown) VH: QVQLQQWGAGLLKPSETLSLTCAVYGESFSGHYWTWIRQPPGKGLEWIGEINHRGSTDYHASLKSRVSISIDTSKNQFSLRLKSVTAAETAIYYCARGRSAWPRRSFAFWGQGILVTVSS VL: DIQMTQSPSTLSASVGDRVTITCRASQSISTSLAWYQQKPGKAPKLLIYESSTLESGIPSRFSGSGFRTGFTLTISSLQPDDVATYYCQHYNASPYTFGQGTKLEIK | – | > 10000
10 | D079 (antibody, V domains shown) VH: not shown VL: QSALTQPASVSGSPGQSITISCTGTSSDVGGYNYVSWYQQHPGKAPKIMIYDVSNRPSGVFNRFFGSKSGNTASLTIFGLQAEDEADYYCSSYTSSSTLGVFGGGTKLTVL | – | > 10000
11 | D184 (antibody, V domains shown) VH: QVQLVQSGAEVKKPGSSVKVSCKASGGTFSSYAISWVRQAPGQGLEWMGGIIPIFGTANYAQKFQGRVTITADESTSTAYMELSSLRSEDTAVYYCARGRGSTYYYYYYMDVWGKGTTVTVSS VL: not shown | – | 8050
12 | D032 (antibody, V domains shown) VH: QVQLVESGGGVVQPGRSLRLSCAASGFTFSSYGMHWVRQAPGKGLEWVAVISYDGSNKYYADSVKGRFTISRDNSKNTLYLQMNSLRAEDTAVYYCAKVETVVDSDYYYYYGMDVWGQGTTVTVSS VL: SYVLTQPPSVSVSPGQTARITCSGDALPKQYAYWYQQKPGQAPVLVIYKDSERPSGIPERFSGSSSGTTVTLTISGVQAEDEADYYCQSADSSGTYWVFGGGTKLTVL | – | > 10000
13 | D044 (antibody, V domains shown) VH: not shown VL: QSVLTQPPSVSGAPGQRVTISCTGSSSNIGAGYDVHWYQQLPGTAPKLLIYGNSNRPSGVPDRFSGSKSGTSASLAITGLQAEDEADYYCQSYDSSLSGYVFGTGTKVTVL | 56.9 nM | 266
14 | D058 (antibody, V domains shown) VH: QVQLQESGPGLVKPSETLSLTCTVSGYSISSGYYWGWIRQPPGKGLEWIGSIYHSGSTYYNPSLKSRVTISVDTSKNQFSLKLSSVTAADTAVYYCARDFPLTLYGVLISDAFDIWGQGTMVTVSS VL: SYELTQPPSVSVSPGQTARITCSADALPKQYAYWYQQKPGQAPVLVIYKDSERPSGIPERFSGSSSGTTVTLTISGVQAEDEADYYCQSADSSGKVFGGGTKLTVL | 24.1 nM | 84.8
15 | D069 (antibody, V domains shown) VH: QVQLVESGGGVVQPGGSLRLSCAASGFTFNIYGMHWVRQAPGKGLEWVAFIRYDGSNKYYADSVKGRFTISRDNSKNTLYLQMNSLRAEDTAVYYCAKSVGYYASGSYYFDYWGQGTLVTVSS VL: not shown | 140 nM | 252
16 | D073 (antibody, V domains shown) VH: QLQLQESGPGLVKPSETLSLTCTVSGGSMSSGSYYWGWIRQPPGKGLEWIGSIFYSGSTYYNPSLKSRVTISIDTSKRQFSLNLRSVTAADKAVYYCARQDIMGYSDVWGEGTTVTVSS VL: EIVLTQSPGTLSLSPRERATLSCRASQSITSTYFAWYQQRPGQAPRLLIYDGSRRATGIPDRFSASGSGTDFTLTISGLEAEDFAVYYCQQYLRLPYTFGQGTKLEIK | – | > 10000
17 | D137 (antibody, V domains shown) VH: QVQLVQSGAEVKKPGASVKVSCKASGYTFTSYDINWVRQATGQGLEWMGWMNPNSGNTGYAQKFQGRVTMTRNTSISTAYMELSSLRSEDTAVYYCARAYCSGGSCYSQPWGQGTLVTVSS VL: QSALTQPPSASGSPGQSVTISCTGTSSDVGGYNYVSWYQQHPGKAPKLMIYEVSKRPSGVPDRFSGSKSGNTASLTVSGLQAEDEADYYCSSYAGSNNWVFGGGTKLTVL | – | 395
18 | D030 (antibody, V domains shown) VH: QVQLVQSGAEVKKPGASVKVSCKASGYTFTSYDINWVRQATGQGLEWMGWMNPNSGNTGYAQKFQGRVTMTRNTSISTAYMELSSLRSEDTAVYYCARDGSGPYDILTGYGMDVWGQGTTVTVSS VL: not shown | – | > 10000
19 | D054 (antibody, V domains shown) VH: QVQLVQSGAEVKKPGASVKVSCKASGYTFTSYYMHWVRQAPGQGLEWMGIINPSGGSTSYAQKFQGRVTMTRDTSTSTVYMELSSLRSEDTAVYYCARESGTGFGELPKGGPFDYWGQGTLVTVSS VL: not shown | – | > 10000
20 | D166 (antibody, V domains shown) VH: EVQLVESGGGLVQPGGSLRLSCAASGFTFSSYDMHWVRQATGKGLEWVSAIGTAGDTYYPGSVKGRFTISRENAKNSLYLQMNSLRAGDTAVYYCARVSYDSSGYYWVFDYWGQGTLVTVSS VL: not shown | – | 2870
21 | D162 (antibody, V domains shown) VH: QVQLVESGGGVVQPGGSLRLSCAASGFTFSSYGMHWVRQAPGKGLEWVAFIRYDGSNKYYADSVKGRFTISRDNSKNTLYLQMNSLRAEDTAVYYCAKDQYYYGSGSYPWFDPWGQGTLVTVSS VL: not shown | 1440 nM | 958
22 | D131 (antibody, V domains shown) VH: QVQLVQSGAEVKKPGASVKVSCKASGYTFTSYGISWVRQAPGQGLEWMGWISAYNGNTNYVQKLQGRVTMTTDTSTSTAYMELRSLRSDDTAVYYCARVQYYYGSGSYRSTYYFDYWGQGTLVTVSS VL: QPVLTQSSSASASLGSSVKLTCTLSSGHSSYIIAWHQQQPGKAPRYLMNLEGSGSYNKGSGVPDRFSGSSSGADRYLTISNLQSEDEADYYCETWDSNIWVFGGGTKLTVL | – | > 10000
23 | C2695 (antibody, V domains shown) VH: EVQLVESGGGLAQPGRSLRLSCAASGFKFDDYAMHWVRQAPGQGLEWVSGIDWNSGIIGYADSVMGRFTISRDNAKKSLYLQMNSLRAEDTALYYCAKSGGFGEFKWFDPWGQGTLVTVSS VL: EIVMTQSPVTLSVSPGERATLSCRASQSVSGNLAWYQQKPGQAPRLLIYGASTRATGFPARFSGSGSGTEFTLTISRLQSEDFAVYYCQQYNKWPRTFGQGTKLEIK | 133 nM | 45.1
24 | D107 (antibody, V domains shown) VH: QVQLVQSGAEVKKPGASVKVSCKASGYTFTSYDINWVRQATGQGLEWMGWMNPNSGNTGYAQKFQGRVTMTRNPSISTAYMELSSLTSDDTAVYYCATALPWDGYNPYYFHYWGQGTLVTVSS VL: not shown | – | > 10000
25 | D100 (antibody, V domains shown) VH: QVQLVQSGAEVKKPGASVKVSCKASGYTFTSYGISWVRQAPGQGLEWMGWISAYNGNTNYAQKLQGRVTMTTDTSTSTAYMELRSLRSDDTAVYYCARVPDRRETPYYDFWSGYSIFDYWGQGTLVTVSS VL: DIQMTQSPSSLSASVGDRVTITCRASQGISNYLAWFQQKPGKAPKSLIYAASSLQSGVPSKFSGSGSGTDFTLTISSLQPEDFATYYCQQYNSYPLTFGGGTKVEIK | 530 nM | > 10000

Reference: publication PMC9876794 (2022)
